According to US20140087995A1 (published 2014):
Numbered stars: 1 amine (or outer) side, 2 acyl side, 3 side chain; on linkers, the order of the positions; unused ones are H or OH. Bridge positions count the residues as written; N and C are the ends. Side chains are listed from the residue outwards. Ends that are not written are not given here. * marks the point of attachment. C20 diacid = O=C(O)CCCCCCCCCCCCCCCCCCC(=O)*; γGlu = O=C(O)[C@H](CCC(=O)[*:2])N[*:1]

T1: human calcitonin receptor (human, UniProt P30988 25-474)
T1 construct: whole, on cells; also called hCTR; hCT
T1 sequence (looked up): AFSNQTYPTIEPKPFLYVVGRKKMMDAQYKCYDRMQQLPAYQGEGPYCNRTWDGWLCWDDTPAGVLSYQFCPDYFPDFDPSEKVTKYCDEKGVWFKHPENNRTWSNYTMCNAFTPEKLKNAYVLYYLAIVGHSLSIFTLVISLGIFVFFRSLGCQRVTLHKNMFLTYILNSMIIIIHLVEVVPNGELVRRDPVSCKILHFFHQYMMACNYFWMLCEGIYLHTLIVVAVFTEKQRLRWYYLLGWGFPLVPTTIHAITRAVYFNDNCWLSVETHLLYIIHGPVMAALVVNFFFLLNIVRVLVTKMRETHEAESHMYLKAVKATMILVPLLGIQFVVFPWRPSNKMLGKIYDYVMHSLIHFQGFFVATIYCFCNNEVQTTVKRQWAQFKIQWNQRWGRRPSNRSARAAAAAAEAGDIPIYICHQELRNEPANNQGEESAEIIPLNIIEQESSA


How the values were obtained:
[1] = biological target: T1, human calcitonin receptor; assay: ratio of IC50 at human calcitonin receptor to IC50 at human amylin receptor (SPA competition assays)
Method in brief: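 Competition binding by SPA with cell membranes (35 ng/μL) and SPA beads in 50 mM Hepes pH 7.4 with 1 mM CaCl2, 5 mM MgCl2, 0.1% OA and 0.02% Tween20. Incubated 120 min at 25 °C with shaking, then counted.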

[2] = biological target: T1, human calcitonin receptor; assay: SPA radioligand competition (125I-calcitonin), membranes of BHK cells with human calcitonin receptor
Method in brief: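 BHK hCTR membranes 35 ng/μL + SPA beads 0.05 mg/well; buffer 50 mM Hepes pH 7.4, 1 mM CaCl2, 5 mM MgCl₂, 0.1% OA, 0.02% Tween20. 120 min, 25° C., shaking. Scintillation count; IC50 by one-site binding competition.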

| Ratio hCT/hAmylin binding [1] | IC50 [2] | Binder |
| --- | --- | --- |
| 29.1 | 15.2 nM | K([γGlu-γGlu-C20 diacid])CNTATCATQRLAEFLRHSSPNFGAIPSSTNVGHETY-NH2 (disulfide 2-7; N-terminus assumed; SMILES CC[C@H](C)[C@H](NC(=O)[C@H](C)NC(=O)CNC(=O)[C@H](Cc1ccccc1)NC(=O)[C@H](CC(N)=O)NC(=O)[C@@H]1CCCN1C(=O)[C@H](CO)NC(=O)[C@H](CO)NC(=O)[C@H](Cc1c[nH]cn1)NC(=O)[C@H](CCCNC(=N)N)NC(=O)[C@H](CC(C)C)NC(=O)[C@H](Cc1ccccc1)NC(=O)[C@H](CCC(=O)O)NC(=O)[C@H](C)NC(=O)[C@H](CC(C)C)NC(=O)[C@H](CCCNC(=N)N)NC(=O)[C@H](CCC(N)=O)NC(=O)[C@@H](NC(=O)[C@H](C)NC(=O)[C@@H]1CSSC[C@H](NC(=O)[C@@H](N)CCCCNC(=O)CC[C@H](NC(=O)CC[C@H](NC(=O)CCCCCCCCCCCCCCCCCCC(=O)O)C(=O)O)C(=O)O)C(=O)N[C@@H](CC(N)=O)C(=O)N[C@@H]([C@@H](C)O)C(=O)N[C@@H](C)C(=O)N[C@@H]([C@@H](C)O)C(=O)N1)[C@@H](C)O)C(=O)N1CCC[C@H]1C(=O)N[C@@H](CO)C(=O)N[C@@H](CO)C(=O)N[C@H](C(=O)N[C@@H](CC(N)=O)C(=O)N[C@H](C(=O)NCC(=O)N[C@@H](Cc1c[nH]cn1)C(=O)N[C@@H](CCC(=O)O)C(=O)N[C@H](C(=O)N[C@@H](Cc1ccc(O)cc1)C(N)=O)[C@@H](C)O)C(C)C)[C@@H](C)O) |
| 35.6 | 22.5 nM | K([γGlu-γGlu-C20 diacid])CNTATCATQRLAEFLRHSSPNFGAIPSSTNVGHNTY-NH2 (disulfide 2-7; N-terminus assumed; SMILES CC[C@H](C)[C@H](NC(=O)[C@H](C)NC(=O)CNC(=O)[C@H](Cc1ccccc1)NC(=O)[C@H](CC(N)=O)NC(=O)[C@@H]1CCCN1C(=O)[C@H](CO)NC(=O)[C@H](CO)NC(=O)[C@H](Cc1c[nH]cn1)NC(=O)[C@H](CCCNC(=N)N)NC(=O)[C@H](CC(C)C)NC(=O)[C@H](Cc1ccccc1)NC(=O)[C@H](CCC(=O)O)NC(=O)[C@H](C)NC(=O)[C@H](CC(C)C)NC(=O)[C@H](CCCNC(=N)N)NC(=O)[C@H](CCC(N)=O)NC(=O)[C@@H](NC(=O)[C@H](C)NC(=O)[C@@H]1CSSC[C@H](NC(=O)[C@@H](N)CCCCNC(=O)CC[C@H](NC(=O)CC[C@H](NC(=O)CCCCCCCCCCCCCCCCCCC(=O)O)C(=O)O)C(=O)O)C(=O)N[C@@H](CC(N)=O)C(=O)N[C@@H]([C@@H](C)O)C(=O)N[C@@H](C)C(=O)N[C@@H]([C@@H](C)O)C(=O)N1)[C@@H](C)O)C(=O)N1CCC[C@H]1C(=O)N[C@@H](CO)C(=O)N[C@@H](CO)C(=O)N[C@H](C(=O)N[C@@H](CC(N)=O)C(=O)N[C@H](C(=O)NCC(=O)N[C@@H](Cc1c[nH]cn1)C(=O)N[C@@H](CC(N)=O)C(=O)N[C@H](C(=O)N[C@@H](Cc1ccc(O)cc1)C(N)=O)[C@@H](C)O)C(C)C)[C@@H](C)O, also called compound 87) |
